According to patent publication US20130273020A1, “ANTIFUNGAL COMPOSITION” (COMVITA NEW ZEALAND LIMITED, priority 2010, published 2013):

Experiments:
Format in all cases: cell-based
Candida albicans [1] = assay: Candida albicans growth by optical density, every 2 hrs up to 24 hrs (Example 1); conditions: single component alone, FIGS. 1 and 2
Method: In this example, a manuka honey was mixed with lactoferrin at varying concentrations and the degree of Candida albicans growth was measured and compared to each of the individual components alone. Samples of honey alone being a manuka honey with a UMF rating of ˜15 were collected. The honey was diluted with distilled water to honey concentrations of 12.5, 11.25, 10, 8.75, 7.5 and 0% (w/v). Samples of lactoferrin alone were also collected and similarly diluted with distilled water to concentrations of 5 mg/mL (5%), 4.5 mg/mL (4.5%), 4 mg/mL (4%), 3.5 mg/mL (3.5%), 3 mg/mL (3%) and 0% (w/v). Mixed samples were then produced using honey concentrations of 12.5, 11.25, 10, 8.75, 7.5 and 0% (w/v) along with lactoferrin at a concentration of 5 mg/mL of lactoferrin. Four replications were completed for each of the samples. Microbial growth for each of the samples was then measured every 2 hrs continuously for up to 24 hrs, determined by measuring the optical density of the mixture.

Candida albicans [2] = assay: Candida albicans broth microtitre plate growth assay, absorbance at 650 nm, 28° C. (Example 4); conditions: honey alone (10% w/v, catalase) or lactoferrin alone (2.5-10 mg/ml); FIG. 6
Method: A further set of Candida albicans repeat trials were completed where the growth of Candida albicans cultures in broth was measured when subjected to a 10% w/v manuka honey with catalase and lactoferrin treatments ranging from 2.5-10 mg/ml. To prevent filamentous growth, the assay temperature was 28° C. as used previously. The assay was a broth microtitre plate set-up. Growth was measured by absorbance at 650 nm. Catalase was added to remove the peroxide effect noted above.

Candida albicans [3] = assay: Candida albicans growth curves at 28° C. by absorbance (540 nm), percentage inhibition vs media alone (Examples 2 and 3); conditions: lactoferrin used in isolation, 0.2% and 0.6% w/v; FIG. 5
Method: A further experiment was completed measuring the growth curves of Candida albicans grown at 28° C. measured by absorbance (540 nm). […] Catalase was added to remove any confounding effects from hydrogen peroxide. As may be appreciated, the peroxide effect can vary between and within honeys giving rise to poor results that are difficult to interpret. Removal of the peroxide effect gives clearer result. It should be noted that a lower growth temperature than usual was used to prevent filamentous growth, which is an artifact of these Candida assays. The results found were clean easily measurable results and were verified under a microscope to be accurate. A further experiment was completed measuring the percentage inhibition expressed as a proportion of Candida albicans growth in media alone. […] Catalase was added to remove the peroxide effect noted above.

B1: lactoferrin (protein, UniProt P02788 20-710, looked up)
Lactotransferrin: GRRRSVQWCAVSQPEATKCFQWQRNMRKVRGPPVSCIKRDSPIQCIQAIAENRADAVTLDGGFIYEAGLAPYKLRPVAAEVYGTERQPRTHYYAVAVVKKGGSFQLNELQGLKSCHTGLRRTAGWNVPIGTLRPFLNWTGPPEPIEAAVARFFSASCVPGADKGQFPNLCRLCAGTGENKCAFSSQEPYFSYSGAFKCLRDGAGDVAFIRESTVFEDLSDEAERDEYELLCPDNTRKPVDKFKDCHLARVPSHAVVARSVNGKEDAIWNLLRQAQEKFGKDKSPKFQLFGSPSGQKDLLFKDSAIGFSRVPPRIDSGLYLGSGYFTAIQNLRKSEEEVAARRARVVWCAVGEQELRKCNQWSGLSEGSVTCSSASTTEDCIALVLKGEADAMSLDGGYVYTAGKCGLVPVLAENYKSQQSSDPDPNCVDRPVEGYLAVAVVRRSDTSLTWNSVKGKKSCHTAVDRTAGWNIPMGLLFNQTGSCKFDEYFSQSCAPGSDPRSNLCALCIGDEQGENKCVPNSNERYYGYTGAFRCLAENAGDVAFVKDVTVLQNTDGNNNEAWAKDLKLADFALLCLDGKRKPVTEARSCHLAMAPNHAVVSRMDKVERLKQVLLHQQAKFGRNGSDCPDKFCLFQSETKNLLFNDNTECLARLHGKTTYEKYLGPQYVAGITNLKKCSTSPLLEACEFLRK
notes: metal chelator that scavenges free transition metal ions, specifically iron
- difference to controls without honey or lactoferrin after 24 hours (Candida albicans [1]; after 24 hours): little difference
- degree of inhibition of microbial growth (Candida albicans [1]; honey 7.5-12.5% (w/v) or lactoferrin 3-5 mg/mL): relatively low
- inhibition of growth (Candida albicans [2]): minimal inhibition
- percentage inhibition as a proportion of growth in media alone (Candida albicans [3]): negligible effects
